# Measured values published in paper PMC6555819, “Comprehensive study of nuclear receptor DNA binding provides a revised framework for understanding receptor specificity”.
# Columns and labels:
# RXRa = RXRa (Homo sapiens, UniProt P19793); test: no ligand; PBM; 180 nM; PBS pH 7.4, 2% milk, 0.02% Triton X-100, 1 mM DTT, BSA, 0.4 mg/ml salmon testes DNA; conditions: tags: His cleaved; chain copies: 2; label: surface-attached array probe
# PPARg:RXRa = PPARg:RXRa (Homo sapiens, UniProt P37231;P19793 full;full); test: no ligand; PBM; 180 nM : 90 nM RXRa; PBS pH 7.4, 2% milk, 0.02% Triton X-100, 1 mM DTT, BSA, 0.4 mg/ml salmon testes DNA; conditions: tags: His kept;His cleaved; copies: 1;1; label: surface-attached array probe
# RARb:RXRa = RARb:RXRa (Homo sapiens, UniProt P10826;P19793 full;full); test: no ligand; PBM; 270 nM : 90 nM RXRa; PBS pH 7.4, 2% milk, 0.02% Triton X-100, 1 mM DTT, BSA, 0.4 mg/ml salmon testes DNA; conditions: tags: His kept;His cleaved; copies: 1;1; label: surface-attached array probe
# Outline: (§1)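 The probes on custom Agilent 4×180K protein-binding microarrays were double-stranded, with 34-nt variable regions bearing direct-repeat seeds, single-nucleotide variants, half-site ablations and random human genomic background sequences. Incubation lasted 1 h with ligand-free nuclear receptor dimers in PBS pH 7.4, 2% milk, 0.02% Triton X-100, 1 mM DTT, 0.2 mg/mL BSA and 0.4 mg/ml salmon testes DNA. Antibodies against each partner (one per run) detected bound dimers, and fluorescence scans were regression-normalized. Binding z-scores take the random background probes as reference.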
# VDR:RXRa = VDR:RXRa (Homo sapiens, UniProt P11473;P19793 full;full); test: as above; conditions: tags: His kept;His cleaved; copies: 1;1; label: surface-attached array probe
# Outline: as §1
# LXRa:RXRa = LXRa:RXRa (Homo sapiens, UniProt Q13133;P19793 full;full); test: as above; conditions: tags: His kept;His cleaved; copies: 1;1; label: surface-attached array probe
# Outline: as §1
# PPARa:RXRa = PPARa:RXRa (Homo sapiens, UniProt Q07869;P19793 full;full); test: as above; conditions: tags: GST kept;His cleaved; copies: 1;1; label: surface-attached array probe
# Outline: as §1
# LXRb:RXRa = LXRb:RXRa (Homo sapiens, UniProt P55055;P19793 full;full); test: as above; conditions: tags: His kept;His cleaved; copies: 1;1; label: surface-attached array probe
# Outline: as §1
# FXR:RXRa = FXR:RXRa (Homo sapiens, UniProt Q96RI1;P19793 full;full); test: as above; conditions: tags: His kept;His cleaved; copies: 1;1; label: surface-attached array probe
# Outline: as §1
# PXR:RXRa = PXR:RXRa (Homo sapiens, UniProt O75469;P19793 full;full); test: as above; conditions: tags: His kept;His cleaved; copies: 1;1; label: surface-attached array probe
# Outline: as §1
# RARa:RXRa = RARa:RXRa (Homo sapiens, UniProt P10276;P19793 full;full); test: as above; conditions: tags: His kept;His cleaved; copies: 1;1; label: surface-attached array probe
# Outline: as §1
# RARg:RXRa = RARg:RXRa (Homo sapiens, UniProt P13631;P19793 full;full); test: as above; conditions: tags: His kept;His cleaved; copies: 1;1; label: surface-attached array probe
# Outline: as §1
# THRa:RXRa = THRa:RXRa (Homo sapiens, UniProt P10827;P19793 full;full); test: no ligand; PBM; 90 nM : 90 nM RXRa; PBS pH 7.4, 2% milk, 0.02% Triton X-100, 1 mM DTT, BSA, 0.4 mg/ml salmon testes DNA; conditions: tags: His kept;His cleaved; copies: 1;1; label: surface-attached array probe
# Sequence of THRa:RXRa (P10827 other isoform, or with tags, fused parts or gaps, chain 1 of 2): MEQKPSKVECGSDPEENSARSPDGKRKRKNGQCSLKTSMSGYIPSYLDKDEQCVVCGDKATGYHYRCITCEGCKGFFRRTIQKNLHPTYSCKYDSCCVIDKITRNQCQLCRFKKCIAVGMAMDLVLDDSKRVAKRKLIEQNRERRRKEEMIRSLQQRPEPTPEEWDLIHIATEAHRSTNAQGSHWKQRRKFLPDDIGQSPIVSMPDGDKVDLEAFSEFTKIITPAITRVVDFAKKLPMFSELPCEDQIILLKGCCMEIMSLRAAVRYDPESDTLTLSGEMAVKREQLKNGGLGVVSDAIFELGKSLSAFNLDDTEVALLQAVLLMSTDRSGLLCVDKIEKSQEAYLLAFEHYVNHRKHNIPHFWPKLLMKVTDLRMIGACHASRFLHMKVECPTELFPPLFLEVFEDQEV
# Sequence of THRa:RXRa (P19793 whole entry, chain 2 of 2): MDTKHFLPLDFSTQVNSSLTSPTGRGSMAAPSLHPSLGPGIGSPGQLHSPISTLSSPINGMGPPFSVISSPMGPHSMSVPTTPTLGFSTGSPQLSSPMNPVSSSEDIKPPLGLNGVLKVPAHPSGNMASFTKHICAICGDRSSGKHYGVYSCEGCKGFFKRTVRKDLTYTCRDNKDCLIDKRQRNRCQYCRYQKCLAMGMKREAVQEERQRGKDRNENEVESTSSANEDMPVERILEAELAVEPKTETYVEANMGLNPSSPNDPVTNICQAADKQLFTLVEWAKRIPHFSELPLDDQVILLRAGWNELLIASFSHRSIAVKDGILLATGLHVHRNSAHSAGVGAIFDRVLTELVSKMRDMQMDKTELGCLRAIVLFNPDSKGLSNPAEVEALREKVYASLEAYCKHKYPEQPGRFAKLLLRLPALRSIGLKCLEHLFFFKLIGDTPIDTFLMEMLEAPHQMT
# Sequence of RARb:RXRa (P10826 whole entry, chain 1 of 2): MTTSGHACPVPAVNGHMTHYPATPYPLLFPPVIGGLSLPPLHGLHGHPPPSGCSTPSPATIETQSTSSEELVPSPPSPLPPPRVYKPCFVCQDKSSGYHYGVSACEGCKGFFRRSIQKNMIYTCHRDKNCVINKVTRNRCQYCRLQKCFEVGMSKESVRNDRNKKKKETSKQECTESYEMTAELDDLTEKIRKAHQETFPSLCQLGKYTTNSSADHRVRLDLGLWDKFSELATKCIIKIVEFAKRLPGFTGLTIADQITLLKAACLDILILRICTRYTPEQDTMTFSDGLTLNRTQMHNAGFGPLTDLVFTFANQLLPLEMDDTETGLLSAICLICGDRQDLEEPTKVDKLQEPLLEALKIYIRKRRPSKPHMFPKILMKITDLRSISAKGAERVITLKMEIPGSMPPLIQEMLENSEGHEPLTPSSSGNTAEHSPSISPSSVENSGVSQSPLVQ
# Sequence of RARb:RXRa (P19793 whole entry, chain 2 of 2): as the sequence (P19793 whole entry, chain 2 of 2) above
# Sequence of RARa:RXRa (P10276 whole entry, chain 1 of 2): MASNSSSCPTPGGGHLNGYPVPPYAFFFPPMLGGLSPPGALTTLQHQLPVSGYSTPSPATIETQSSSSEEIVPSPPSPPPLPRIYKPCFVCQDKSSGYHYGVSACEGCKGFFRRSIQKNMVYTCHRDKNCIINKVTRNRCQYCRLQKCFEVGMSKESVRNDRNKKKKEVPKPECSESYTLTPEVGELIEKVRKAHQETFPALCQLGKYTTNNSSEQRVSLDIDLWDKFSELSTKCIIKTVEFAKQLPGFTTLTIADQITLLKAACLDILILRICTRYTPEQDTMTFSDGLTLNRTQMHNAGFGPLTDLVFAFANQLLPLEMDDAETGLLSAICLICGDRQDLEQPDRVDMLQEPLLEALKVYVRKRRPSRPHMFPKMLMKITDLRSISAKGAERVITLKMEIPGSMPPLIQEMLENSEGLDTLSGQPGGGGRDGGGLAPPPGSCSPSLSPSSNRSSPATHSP
# Sequence of RARa:RXRa (P19793 whole entry, chain 2 of 2): as the sequence (P19793 whole entry, chain 2 of 2) above
# Sequence of RARg:RXRa (P13631 whole entry, chain 1 of 2): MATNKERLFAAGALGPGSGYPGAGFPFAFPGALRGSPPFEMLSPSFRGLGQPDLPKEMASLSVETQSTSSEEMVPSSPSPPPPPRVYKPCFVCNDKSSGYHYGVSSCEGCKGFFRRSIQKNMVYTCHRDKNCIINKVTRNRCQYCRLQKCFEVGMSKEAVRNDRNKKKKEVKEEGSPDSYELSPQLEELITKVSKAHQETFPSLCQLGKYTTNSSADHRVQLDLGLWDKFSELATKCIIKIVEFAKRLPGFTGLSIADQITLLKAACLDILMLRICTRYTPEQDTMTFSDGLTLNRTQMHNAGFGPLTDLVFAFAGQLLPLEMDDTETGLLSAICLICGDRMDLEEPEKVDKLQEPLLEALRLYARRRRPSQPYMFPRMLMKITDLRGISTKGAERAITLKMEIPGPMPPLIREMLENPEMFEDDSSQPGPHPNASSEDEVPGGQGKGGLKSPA
# Sequence of RARg:RXRa (P19793 whole entry, chain 2 of 2): as the sequence (P19793 whole entry, chain 2 of 2) above
# Sequence of PXR:RXRa (O75469 whole entry, chain 1 of 2): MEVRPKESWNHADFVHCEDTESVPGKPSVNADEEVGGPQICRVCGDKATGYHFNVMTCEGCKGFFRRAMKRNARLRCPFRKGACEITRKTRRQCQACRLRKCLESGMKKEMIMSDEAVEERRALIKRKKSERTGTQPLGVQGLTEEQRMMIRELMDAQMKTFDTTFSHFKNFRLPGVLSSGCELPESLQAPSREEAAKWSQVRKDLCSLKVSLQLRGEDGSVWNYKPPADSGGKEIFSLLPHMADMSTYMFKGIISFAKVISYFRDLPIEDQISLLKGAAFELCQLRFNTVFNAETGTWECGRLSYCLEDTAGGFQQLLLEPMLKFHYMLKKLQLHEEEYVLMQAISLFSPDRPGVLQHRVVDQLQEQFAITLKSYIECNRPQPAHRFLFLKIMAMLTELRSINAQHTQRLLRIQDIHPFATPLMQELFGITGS
# Sequence of PXR:RXRa (P19793 whole entry, chain 2 of 2): as the sequence (P19793 whole entry, chain 2 of 2) above
binder,measurement,setting,value
NRC3_wobSeed26_DR1_T9A_o1 (dsDNA) DNA 1: GCTCTAGTAGGTCAAAGGTCACACACTCGAAATGCGGCGATTGACAGCGTAGAATGAAGG DNA 2: CCTTCATTCTACGCTGTCAATCGCCGCATTTCGAGTGTGTGACCTTTGACCTACTAGAGC,binding signal,RXRa,10.5 PBM z-score against 500 random probes
same,binding signal,PPARg:RXRa,14.4 PBM z-score against 500 random probes
same,binding signal,RARb:RXRa,5.79 PBM z-score against 500 random probes
same,binding signal,VDR:RXRa,6.79 PBM z-score against 500 random probes
same,binding signal,LXRa:RXRa,7.19 PBM z-score against 500 random probes
same,binding signal,PPARa:RXRa,7.46 PBM z-score against 500 random probes
same,binding signal,LXRb:RXRa,6.9 PBM z-score against 500 random probes
same,binding signal,FXR:RXRa,8.25 PBM z-score against 500 random probes
same,binding signal,PXR:RXRa,7.41 PBM z-score against 500 random probes
same,binding signal,RARa:RXRa,9.28 PBM z-score against 500 random probes
same,binding signal,RARg:RXRa,8.88 PBM z-score against 500 random probes
NRC3_wobSeed26_DR1_T9G_o1 (dsDNA) DNA 1: GCTCTAGTGGGTCAAAGGTCACACACTCGAAATGCGGCGATTGACAGCGTAGAATGAAGG DNA 2: CCTTCATTCTACGCTGTCAATCGCCGCATTTCGAGTGTGTGACCTTTGACCCACTAGAGC,binding signal,RXRa,10.2 PBM z-score against 500 random probes
same,binding signal,PPARg:RXRa,13.8 PBM z-score against 500 random probes
same,binding signal,RARb:RXRa,5.62 PBM z-score against 500 random probes
same,binding signal,VDR:RXRa,7 PBM z-score against 500 random probes
same,binding signal,LXRa:RXRa,6.72 PBM z-score against 500 random probes
same,binding signal,PPARa:RXRa,7.42 PBM z-score against 500 random probes
same,binding signal,LXRb:RXRa,6.79 PBM z-score against 500 random probes
same,binding signal,PXR:RXRa,6.94 PBM z-score against 500 random probes
same,binding signal,RARa:RXRa,8.89 PBM z-score against 500 random probes
same,binding signal,RARg:RXRa,8.6 PBM z-score against 500 random probes
NRC3_wobSeed98_DR4_G15A_o1 (dsDNA) DNA 1: GCACTAGTTGGTCAACTGAGGTCACACACAATTCGGGCGATTGACAGCGTAGAATGAAGG DNA 2: CCTTCATTCTACGCTGTCAATCGCCCGAATTGTGTGTGACCTCAGTTGACCAACTAGTGC,binding signal,THRa:RXRa,5.62 PBM z-score against 500 random probes
NRC3_wobSeed98_DR4_T8G_o1 (dsDNA) DNA 1: GCACTAGGTGGTCAGCTGAGGTCACACACAATTCGGGCGATTGACAGCGTAGAATGAAGG DNA 2: CCTTCATTCTACGCTGTCAATCGCCCGAATTGTGTGTGACCTCAGCTGACCACCTAGTGC,binding signal,THRa:RXRa,5.35 PBM z-score against 500 random probes
NRC3_wobSeed101_DR4_C18G_o1 (dsDNA) DNA 1: GCCCTTACGGGTCACTCGAGGTTATAGCATCGGAGTGCGATTGACAGCGTAGAATGAAGG DNA 2: CCTTCATTCTACGCTGTCAATCGCACTCCGATGCTATAACCTCGAGTGACCCGTAAGGGC,binding signal,THRa:RXRa,5.34 PBM z-score against 500 random probes
NRC3_wobSeed103_DR4_A13C_o1 (dsDNA) DNA 1: GCGCATATAGGTCATACAAGGTGAAAGTCCGATTGTGCGATTGACAGCGTAGAATGAAGG DNA 2: CCTTCATTCTACGCTGTCAATCGCACAATCGGACTTTCACCTTGTATGACCTATATGCGC,binding signal,THRa:RXRa,5.57 PBM z-score against 500 random probes
NRC3_wobSeed117_DR4_A15C_o1 (dsDNA) DNA 1: GCCGTCAAAGTTCACCTAAGGTAACGTAAAGCACGCGCGATTGACAGCGTAGAATGAAGG DNA 2: CCTTCATTCTACGCTGTCAATCGCGCGTGCTTTACGTTACCTTAGGTGAACTTTGACGGC,binding signal,THRa:RXRa,5.54 PBM z-score against 500 random probes
NRC3_wobSeed117_DR4_C16T_o1 (dsDNA) DNA 1: GCCGTCAAAGTTCAATTAAGGTAACGTAAAGCACGCGCGATTGACAGCGTAGAATGAAGG DNA 2: CCTTCATTCTACGCTGTCAATCGCGCGTGCTTTACGTTACCTTAATTGAACTTTGACGGC,binding signal,THRa:RXRa,5.49 PBM z-score against 500 random probes
NRC3_wobSeed109_DR4_T26A_o1 (dsDNA) DNA 1: GCCGTCCAAGGTCATAGGAGGTCAGAGAAGACAGATGCGATTGACAGCGTAGAATGAAGG DNA 2: CCTTCATTCTACGCTGTCAATCGCATCTGTCTTCTCTGACCTCCTATGACCTTGGACGGC,binding signal,THRa:RXRa,5.62 PBM z-score against 500 random probes
